Test results taken from patent US9708383 (Novo Nordisk, dated 2017).
*1 amine or outer side, *2 acyl side, *3 side chain or, on linkers, in order; H or OH if unused. Where no end group is shown, it is not given here. Side-chain parts run from the residue outwards. [ ]: non-standard residue; d: D form. The star is where a group is joined. 8‑(4-carboxyphenoxy)octanoyl = O=C(O)c1ccc(OCCCCCCCC(=O)*)cc1; Decanoyl(10-(4-HOOC-PhO)) = O=C(O)c1ccc(OCCCCCCCCCC(=O)*)cc1; γGlu = O=C(O)[C@H](CCC(=O)[*:2])N[*:1]; 13‑carboxytridecanoyl = C14 diacid; AEEA = NCCOCCOCC(=O)O; Aib = CC(C)(N)C(=O)O

Assays:
human GLP-1 receptor [1] = target: T1, human GLP-1 receptor (human, UniProt P43220 24-463); experiment: SPA, 2.0% vs 0.005% HSA
T1 construct: whole, on cells; Used as purified membranes of the transfected hamster cells, not whole cells; also called hGLP-1

human GLP-1 receptor [2] = target: T1, human GLP-1 receptor; experiment: SPA, displacement of 125I-GLP-1(7-36)NH2, 0.005% HSA

H[Aib]EGTFTSDVSK([AEEA-γGlu-AEEA-13‑carboxytridecanoyl])YLEEQAAK([AEEA-γGlu-AEEA-13‑carboxytridecanoyl])EFIAWLVQGRG [GLP-1 derivative of Example 86: [Aib8,Lys18,Glu22,Gln34]-GLP-1-(7-37)-peptide]
ratio IC50 high HSA/IC50 low HSA (human GLP-1 receptor [1]): > 1
IC50 (human GLP-1 receptor [2]): < 1000 nM

H[Aib]EGTFTSDVSK([AEEA-AEEA-γGlu-2‑phenylcyclopropanecarbonyl])YLEEQAAK([AEEA-AEEA-γGlu-2‑phenylcyclopropanecarbonyl])EFIAWLVQGRG [GLP-1 derivative of Example 79: [Aib8,Lys18,Glu22,Gln34]-GLP-1-(7-37)-peptide]
ratio IC50 high HSA/IC50 low HSA (human GLP-1 receptor [1]): > 1
IC50 (human GLP-1 receptor [2]): < 1000 nM

H[Aib]EGTFTSDVSK([AEEA-AEEA-γGlu-13‑carboxytridecanoyl])YLEEQAAK([AEEA-AEEA-γGlu-13‑carboxytridecanoyl])EFIAWLVQGRG [GLP-1 derivative of Example 80: [Aib8,Lys18,Glu22,Gln34]-GLP-1-(7-37)-peptide]
ratio IC50 high HSA/IC50 low HSA (human GLP-1 receptor [1]): > 1
IC50 (human GLP-1 receptor [2]): < 1000 nM

H[Aib]EGTFTSDVSK([AEEA-AEEA-13‑carboxytridecanoyl])YLEEQAAK([AEEA-AEEA-13‑carboxytridecanoyl])EFIAWLVQGRG [GLP-1 derivative of Example 84: [Aib8,Lys18,Glu22,Gln34]-GLP-1-(7-37)-peptide]
ratio IC50 high HSA/IC50 low HSA (human GLP-1 receptor [1]): > 1
IC50 (human GLP-1 receptor [2]): < 1000 nM

H[Aib]EGTFTSDVSK([AEEA-AEEA-Decanoyl(10-(4-HOOC-PhO))])YLEEQAAK([AEEA-AEEA-Decanoyl(10-(4-HOOC-PhO))])EFIAWLVQGRG [GLP-1 derivative of Example 85: [Aib8,Lys18,Glu22,Lys26,Gln34]-GLP-1-(7-37)-peptide]
ratio IC50 high HSA/IC50 low HSA (human GLP-1 receptor [1]): > 1
IC50 (human GLP-1 receptor [2]): < 1000 nM

H[Aib]EGTFTSDVSK([AEEA-AEEA-γGlu-8‑(4-carboxyphenoxy)octanoyl])YLEEQAAK([AEEA-AEEA-γGlu-8‑(4-carboxyphenoxy)octanoyl])EFIAWLVQGRG [GLP-1 derivative of Example 87: [Aib8,Lys18,Glu22,Gln34]-GLP-1-(7-37)-peptide]
ratio IC50 high HSA/IC50 low HSA (human GLP-1 receptor [1]): > 1
IC50 (human GLP-1 receptor [2]): < 1000 nM

H[Aib]EGTFTSDVSK([AEEA-γGlu-AEEA-Decanoyl(10-(4-HOOC-PhO))])YLEEQAAK([AEEA-γGlu-AEEA-Decanoyl(10-(4-HOOC-PhO))])EFIAWLVQGRG [GLP-1 derivative of Example 90: [Aib8,Lys18,Glu22,Gln34]-GLP-1-(7-37)-peptide]
ratio IC50 high HSA/IC50 low HSA (human GLP-1 receptor [1]): > 1
IC50 (human GLP-1 receptor [2]): < 1000 nM

H[Aib]EGTFTSDVSK([γGlu-AEEA-AEEA-Decanoyl(10-(4-HOOC-PhO))])YLEEQAAK([γGlu-AEEA-AEEA-Decanoyl(10-(4-HOOC-PhO))])EFIAWLVQGRG [GLP-1 derivative of Example 82: [Aib8,Lys18,Glu22,Gln34]-GLP-1-(7-37)-peptide]
ratio IC50 high HSA/IC50 low HSA (human GLP-1 receptor [1]): > 1
IC50 (human GLP-1 receptor [2]): < 1000 nM
